From US20140072613A1, “Compositions and Methods for Treating Cutaneous Scarring” (priority 2012, published 2014)

Legend:
Test in all cases: cell-based or functional assay
[1] = target: ASK1(h) (human) (UniProt Q99683)
[2] = target: Abl(Y253F)(h) (human) (UniProt P00519)
[3] = target: EGFR(T790M,L858R)(h) (human) (UniProt P00533)
[4] = target: EphB3(h) (human) (UniProt P54753)
[5] = target: T1, GRK7(h) (human) (UniProt Q8WTQ7)
T1 sequence (looked up): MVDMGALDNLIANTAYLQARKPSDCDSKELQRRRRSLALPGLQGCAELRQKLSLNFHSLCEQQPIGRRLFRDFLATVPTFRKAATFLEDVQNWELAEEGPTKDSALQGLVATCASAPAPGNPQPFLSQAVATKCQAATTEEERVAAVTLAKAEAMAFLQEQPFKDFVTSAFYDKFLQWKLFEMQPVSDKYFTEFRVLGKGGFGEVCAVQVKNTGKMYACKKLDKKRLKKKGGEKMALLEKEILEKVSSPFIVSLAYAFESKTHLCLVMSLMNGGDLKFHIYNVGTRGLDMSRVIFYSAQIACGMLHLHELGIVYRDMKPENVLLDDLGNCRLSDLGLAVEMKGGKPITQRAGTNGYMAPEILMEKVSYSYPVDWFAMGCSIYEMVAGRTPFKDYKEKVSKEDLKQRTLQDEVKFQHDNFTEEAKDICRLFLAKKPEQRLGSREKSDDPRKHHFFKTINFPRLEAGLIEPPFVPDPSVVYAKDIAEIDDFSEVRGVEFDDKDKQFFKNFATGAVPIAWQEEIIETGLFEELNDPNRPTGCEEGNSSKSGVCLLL

[6] = target: HIPK1(h) (human) (UniProt Q86Z02)
[7] = target: Hck(h) (human) (UniProt P08631)
[8] = target: Lyn(h) (human) (UniProt P07948)
[9] = target: Met(Y1248D)(h) (human) (UniProt P08581)
[10] = target: Pim-1(h) (human) (UniProt P11309)
[11] = target: SAPK2a(h) (human) (UniProt Q16539)
[12] = target: SGK(h) (human) (UniProt O00141)
[13] = target: T2, TAO1(h) (human) (UniProt Q7L7X3)
T2 sequence (looked up): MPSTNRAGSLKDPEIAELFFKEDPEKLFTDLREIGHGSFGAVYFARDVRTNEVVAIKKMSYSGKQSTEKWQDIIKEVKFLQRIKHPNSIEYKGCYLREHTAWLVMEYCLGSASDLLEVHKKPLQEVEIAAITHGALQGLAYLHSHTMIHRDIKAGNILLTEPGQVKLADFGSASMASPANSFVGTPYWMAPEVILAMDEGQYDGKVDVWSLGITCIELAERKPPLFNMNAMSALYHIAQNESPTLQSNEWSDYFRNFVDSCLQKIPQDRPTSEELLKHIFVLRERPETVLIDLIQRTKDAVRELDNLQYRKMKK

[14] = target: T3, TSSK1(h) (human) (UniProt Q9BXA7)
T3 sequence (looked up): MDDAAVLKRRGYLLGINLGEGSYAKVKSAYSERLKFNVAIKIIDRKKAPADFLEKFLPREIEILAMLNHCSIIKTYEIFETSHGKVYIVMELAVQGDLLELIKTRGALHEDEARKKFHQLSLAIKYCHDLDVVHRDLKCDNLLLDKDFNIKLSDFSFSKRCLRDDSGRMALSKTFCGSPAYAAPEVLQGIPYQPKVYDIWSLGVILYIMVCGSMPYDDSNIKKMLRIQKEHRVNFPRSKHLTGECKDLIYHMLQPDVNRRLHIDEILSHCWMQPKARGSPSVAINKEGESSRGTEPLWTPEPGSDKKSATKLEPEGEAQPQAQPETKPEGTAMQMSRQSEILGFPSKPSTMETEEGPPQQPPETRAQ

[15] = target: T4, eEF-2K(h) (human) (UniProt O00418)
T4 sequence (looked up): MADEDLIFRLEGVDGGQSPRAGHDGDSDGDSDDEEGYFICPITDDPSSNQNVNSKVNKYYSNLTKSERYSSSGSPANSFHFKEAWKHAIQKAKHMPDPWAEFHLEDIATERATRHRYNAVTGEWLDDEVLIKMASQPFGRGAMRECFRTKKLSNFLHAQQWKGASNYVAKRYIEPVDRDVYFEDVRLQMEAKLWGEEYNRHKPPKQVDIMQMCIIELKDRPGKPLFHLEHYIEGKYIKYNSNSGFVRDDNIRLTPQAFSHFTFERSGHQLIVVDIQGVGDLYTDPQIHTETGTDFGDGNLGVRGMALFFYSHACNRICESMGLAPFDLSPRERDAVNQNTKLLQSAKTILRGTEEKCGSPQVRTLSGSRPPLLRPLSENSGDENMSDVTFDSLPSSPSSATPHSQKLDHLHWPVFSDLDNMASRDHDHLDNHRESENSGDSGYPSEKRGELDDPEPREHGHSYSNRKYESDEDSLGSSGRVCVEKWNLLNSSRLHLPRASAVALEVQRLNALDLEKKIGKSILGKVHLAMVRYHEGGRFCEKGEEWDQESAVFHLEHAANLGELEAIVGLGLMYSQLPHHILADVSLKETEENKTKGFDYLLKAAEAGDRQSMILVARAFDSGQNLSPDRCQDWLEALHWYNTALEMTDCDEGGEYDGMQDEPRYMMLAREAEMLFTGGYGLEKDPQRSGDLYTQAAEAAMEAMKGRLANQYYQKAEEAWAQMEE

[16] = target: mTOR(h) (human) (UniProt P42345)

EphB3(h) (human), sequence (P54753 581-998 limits assumed): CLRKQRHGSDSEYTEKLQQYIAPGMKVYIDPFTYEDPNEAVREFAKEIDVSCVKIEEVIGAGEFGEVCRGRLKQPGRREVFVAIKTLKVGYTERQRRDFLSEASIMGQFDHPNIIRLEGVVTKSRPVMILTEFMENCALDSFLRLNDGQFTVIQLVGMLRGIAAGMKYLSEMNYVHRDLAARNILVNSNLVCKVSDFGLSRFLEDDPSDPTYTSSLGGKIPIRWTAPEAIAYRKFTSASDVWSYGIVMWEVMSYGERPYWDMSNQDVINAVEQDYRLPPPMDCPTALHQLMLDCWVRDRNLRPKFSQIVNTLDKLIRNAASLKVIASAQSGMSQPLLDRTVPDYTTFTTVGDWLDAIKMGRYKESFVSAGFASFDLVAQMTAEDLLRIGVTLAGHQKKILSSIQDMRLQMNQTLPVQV
ASK1(h) (human), sequence (Q99683 649-946 limits assumed): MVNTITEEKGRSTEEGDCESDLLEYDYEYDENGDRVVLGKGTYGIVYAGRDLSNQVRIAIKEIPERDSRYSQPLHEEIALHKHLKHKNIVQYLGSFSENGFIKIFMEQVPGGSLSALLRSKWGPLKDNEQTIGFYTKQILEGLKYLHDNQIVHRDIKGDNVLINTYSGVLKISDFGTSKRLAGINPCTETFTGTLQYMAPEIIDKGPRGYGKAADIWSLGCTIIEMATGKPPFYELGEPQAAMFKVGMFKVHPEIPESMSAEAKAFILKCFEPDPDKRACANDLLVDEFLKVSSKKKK
HIPK1(h) (human), sequence (Q86Z02 158-555 limits assumed): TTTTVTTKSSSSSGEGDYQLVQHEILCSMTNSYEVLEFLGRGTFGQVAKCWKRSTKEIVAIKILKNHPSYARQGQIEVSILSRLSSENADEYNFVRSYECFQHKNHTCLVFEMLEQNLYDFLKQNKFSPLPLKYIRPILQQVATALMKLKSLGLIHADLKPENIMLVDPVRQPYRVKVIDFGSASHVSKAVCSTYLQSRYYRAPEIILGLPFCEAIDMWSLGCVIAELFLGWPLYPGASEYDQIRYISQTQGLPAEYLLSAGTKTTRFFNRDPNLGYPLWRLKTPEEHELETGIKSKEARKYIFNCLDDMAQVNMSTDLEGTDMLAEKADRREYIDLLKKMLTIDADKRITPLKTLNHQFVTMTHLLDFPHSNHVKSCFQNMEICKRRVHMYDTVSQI
Pim-1(h) (human), sequence (P11309 whole entry): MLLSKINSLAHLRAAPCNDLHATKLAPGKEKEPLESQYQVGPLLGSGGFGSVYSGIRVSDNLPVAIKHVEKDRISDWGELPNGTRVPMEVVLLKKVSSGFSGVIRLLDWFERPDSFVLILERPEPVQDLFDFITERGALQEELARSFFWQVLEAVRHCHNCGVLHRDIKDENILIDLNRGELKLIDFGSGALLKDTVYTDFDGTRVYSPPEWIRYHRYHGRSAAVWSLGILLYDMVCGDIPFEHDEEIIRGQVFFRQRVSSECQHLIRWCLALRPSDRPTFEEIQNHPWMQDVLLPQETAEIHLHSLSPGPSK
SGK(h) (human), sequence (O00141 60-431 limits assumed): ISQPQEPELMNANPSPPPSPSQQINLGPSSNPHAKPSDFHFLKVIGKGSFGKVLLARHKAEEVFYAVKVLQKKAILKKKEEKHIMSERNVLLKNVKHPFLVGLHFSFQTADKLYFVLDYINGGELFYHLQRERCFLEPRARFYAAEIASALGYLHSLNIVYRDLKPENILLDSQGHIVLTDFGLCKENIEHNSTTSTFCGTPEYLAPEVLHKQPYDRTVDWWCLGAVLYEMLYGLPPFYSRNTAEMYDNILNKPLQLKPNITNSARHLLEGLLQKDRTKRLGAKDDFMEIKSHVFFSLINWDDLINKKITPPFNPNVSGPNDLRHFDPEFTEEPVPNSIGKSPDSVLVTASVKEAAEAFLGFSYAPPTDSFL
Abl(Y253F)(h) (human), sequence (P00519 27-1130 Y253F limits assumed): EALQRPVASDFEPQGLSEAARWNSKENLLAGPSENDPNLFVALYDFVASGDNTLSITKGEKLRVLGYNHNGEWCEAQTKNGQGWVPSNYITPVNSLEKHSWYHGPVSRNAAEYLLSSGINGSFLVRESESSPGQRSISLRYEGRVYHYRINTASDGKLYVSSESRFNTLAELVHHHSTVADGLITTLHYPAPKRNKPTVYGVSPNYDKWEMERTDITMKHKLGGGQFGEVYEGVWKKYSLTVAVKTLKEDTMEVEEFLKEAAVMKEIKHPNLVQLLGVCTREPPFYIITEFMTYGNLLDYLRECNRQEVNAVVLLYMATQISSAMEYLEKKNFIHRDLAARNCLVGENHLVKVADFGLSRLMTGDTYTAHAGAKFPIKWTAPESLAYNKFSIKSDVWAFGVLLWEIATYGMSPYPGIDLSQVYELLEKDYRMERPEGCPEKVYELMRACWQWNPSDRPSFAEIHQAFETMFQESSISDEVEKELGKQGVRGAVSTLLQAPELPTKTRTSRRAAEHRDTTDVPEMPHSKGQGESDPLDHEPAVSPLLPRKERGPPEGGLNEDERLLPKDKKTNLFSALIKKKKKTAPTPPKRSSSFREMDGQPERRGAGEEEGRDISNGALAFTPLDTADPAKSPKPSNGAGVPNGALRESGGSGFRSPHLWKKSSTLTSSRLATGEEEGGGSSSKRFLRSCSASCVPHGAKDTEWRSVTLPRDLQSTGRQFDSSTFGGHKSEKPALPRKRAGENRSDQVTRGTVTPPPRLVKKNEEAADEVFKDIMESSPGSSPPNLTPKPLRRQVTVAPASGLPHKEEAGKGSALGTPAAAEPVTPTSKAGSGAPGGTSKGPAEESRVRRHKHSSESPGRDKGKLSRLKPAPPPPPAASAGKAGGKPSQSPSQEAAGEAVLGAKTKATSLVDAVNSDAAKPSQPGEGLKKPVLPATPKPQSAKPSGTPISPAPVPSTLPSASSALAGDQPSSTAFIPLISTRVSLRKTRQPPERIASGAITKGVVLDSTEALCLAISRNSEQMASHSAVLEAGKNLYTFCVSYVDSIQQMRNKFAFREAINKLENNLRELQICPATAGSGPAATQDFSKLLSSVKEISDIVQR
SAPK2a(h) (human), sequence (Q16539 whole entry): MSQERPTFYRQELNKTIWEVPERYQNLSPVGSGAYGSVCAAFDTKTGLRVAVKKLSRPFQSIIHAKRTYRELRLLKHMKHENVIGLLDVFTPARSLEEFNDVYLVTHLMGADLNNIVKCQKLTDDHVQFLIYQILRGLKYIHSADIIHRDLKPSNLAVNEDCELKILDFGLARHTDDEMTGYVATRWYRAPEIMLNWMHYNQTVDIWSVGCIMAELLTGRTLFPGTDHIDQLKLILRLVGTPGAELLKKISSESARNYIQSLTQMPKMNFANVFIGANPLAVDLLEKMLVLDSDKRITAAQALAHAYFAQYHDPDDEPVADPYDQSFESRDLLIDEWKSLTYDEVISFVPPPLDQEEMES
Hck(h) (human), sequence (P08631 251-518 limits assumed): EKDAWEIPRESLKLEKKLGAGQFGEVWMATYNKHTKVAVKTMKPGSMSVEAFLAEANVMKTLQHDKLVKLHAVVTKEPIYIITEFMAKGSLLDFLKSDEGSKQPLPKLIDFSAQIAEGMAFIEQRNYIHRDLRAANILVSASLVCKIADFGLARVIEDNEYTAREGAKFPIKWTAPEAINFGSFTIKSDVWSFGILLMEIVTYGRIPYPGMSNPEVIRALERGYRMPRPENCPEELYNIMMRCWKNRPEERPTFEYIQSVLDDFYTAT
Lyn(h) (human), sequence (P07948 whole entry): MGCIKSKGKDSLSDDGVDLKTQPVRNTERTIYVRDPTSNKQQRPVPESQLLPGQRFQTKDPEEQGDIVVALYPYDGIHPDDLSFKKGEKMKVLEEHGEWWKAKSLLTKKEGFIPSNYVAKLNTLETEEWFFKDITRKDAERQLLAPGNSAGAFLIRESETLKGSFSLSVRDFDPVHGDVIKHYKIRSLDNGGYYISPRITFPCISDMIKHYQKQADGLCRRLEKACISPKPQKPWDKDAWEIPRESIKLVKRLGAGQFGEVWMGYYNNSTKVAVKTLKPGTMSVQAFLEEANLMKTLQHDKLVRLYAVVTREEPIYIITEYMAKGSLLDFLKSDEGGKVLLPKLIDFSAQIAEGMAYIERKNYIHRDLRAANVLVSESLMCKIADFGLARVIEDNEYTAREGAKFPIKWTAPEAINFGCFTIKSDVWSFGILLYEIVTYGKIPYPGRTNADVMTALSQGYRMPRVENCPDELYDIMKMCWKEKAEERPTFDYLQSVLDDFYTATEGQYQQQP

- % activity, 100 µM [1]: -4%
- % activity, 100 µM [2]: 29%
- % activity, 100 µM [3]: 53%
- % activity, 100 µM [4]: 79%
- % activity, 100 µM [5]: 93%
- % activity, 100 µM [6]: 47%
- % activity, 100 µM [7]: 78%
- % activity, 100 µM [8]: 31%
- % activity, 100 µM [9]: 218%
- % activity, 100 µM [10]: 0%
- % activity, 100 µM [11]: 52%
- % activity, 100 µM [12]: 2%
- % activity, 100 µM [13]: 24%
- % activity, 100 µM [14]: 46%
- % activity, 100 µM [15]: 43%
- % activity, 100 µM [16]: 135%
Substance: MMI-0500 (peptide)
